The source of these data is US9708383 (Novo Nordisk, dated 2017).

The target of assay [1] is T1, human GLP-1 receptor (human, UniProt P43220 24-463).
T1 construct: whole, on cells; Used as purified membranes of the transfected hamster cells, not whole cells; also called hGLP-1
Kind of assay: SPA, 2.0% vs 0.005% HSA. The protocol: (§1) A shift in the binding affinity, $IC50$, is an indication that the derivative in question binds to albumin, and thereby a prediction of a potential protracted pharmacokinetic profile of the derivative in question in animal models.
(§2) 25 ul (microliter) of test compounds are added to Optiplate. HSA ("high albumin" experiment containing 2% HSA), or buffer ("low albumin" experiment containing 0.005% HSA), was added (50 ul). 5-10 µg protein/sample was added (50 ul) corresponding to 0.1-0.2 mg protein/ml (to be preferably optimised for each membrane preparation). SPA-particles (Wheatgerm agglutinin SPA beads, Perkin Elmer, #RPNQ0001) were added in an amount of 0.5 mg/well (50 ul). […] The plates were sealed with PlateSealer and incubated for 120 minutes at 30° C. while shaking. The plates were centrifuged (1500 rpm, 10 min) and counted in Topcounter.

For assay [2], the target named is T1, human GLP-1 receptor. Kind of assay: SPA, displacement of 125I-GLP-1(7-36)NH2, 0.005% HSA. The protocol:
as §1, §2

*1 amine or outer side, *2 acyl side, *3 side chain or, on linkers, in order; H or OH if unused. Where no end group is shown, it is not given here. Side-chain parts run from the residue outwards. The star is where a group is joined. 8‑(4-carboxyphenoxy)octanoyl = O=C(O)c1ccc(OCCCCCCCC(=O)*)cc1; Decanoyl(10-(4-HOOC-PhO)) = O=C(O)c1ccc(OCCCCCCCCCC(=O)*)cc1; γGlu = O=C(O)[C@H](CCC(=O)[*:2])N[*:1]; 13‑carboxytridecanoyl = C14 diacid; AEEA = NCCOCCOCC(=O)O

With HAEGTFTSDVSK([AEEA-AEEA-γGlu-13‑carboxytridecanoyl])YLEEQAVRK([AEEA-AEEA-γGlu-13‑carboxytridecanoyl])FIAWLVQGRG [GLP-1 derivative of Example 48: [Lys18,Glu22,Val25,Arg26,Lys27,Gln34]-GLP-1-(7-37)-peptide], in assay [1], the “ratio IC50 high HSA/IC50 low HSA” value was above 1. Moreover, the IC50 (in general, the concentration needed to halve the response being measured) in assay [2] was below 1000 nM.

For the molecule HAEGTFTSDVSK([AEEA-AEEA-γGlu-13‑carboxytridecanoyl])YLEGQAVREFIAK([AEEA-AEEA-γGlu-13‑carboxytridecanoyl])LVRGRG [GLP-1 derivative of Example 77: [Lys18,Val25,Arg26,Lys31,Arg34]-GLP-1-(7-37)-peptide], the “ratio IC50 high HSA/IC50 low HSA” value in assay [1] was above 1. In assay [2], this molecule yielded an IC50 below 1000 nM.

Turning to HAEGTFTSDVSK([AEEA-AEEA-γGlu-13‑carboxytridecanoyl])YLEEQAAHK([AEEA-AEEA-γGlu-13‑carboxytridecanoyl])FIAWLVQGRG [GLP-1 derivative of Example 61: [Lys18,Glu22,His26,Lys27,Gln34]-GLP-1-(7-37)-peptide], the “ratio IC50 high HSA/IC50 low HSA” value in assay [1] was above 1. This molecule came in with an IC50 in assay [2] below 1000 nM.

Take HAEGTFTSDVSK([AEEA-AEEA-γGlu-13‑carboxytridecanoyl])YLEGQAAREFIAK([AEEA-AEEA-γGlu-13‑carboxytridecanoyl])LVRGRG [GLP-1 derivative of Example 70: [Lys18,Arg26,Lys31,Arg34]-GLP-1-(7-37)-peptide]: the “ratio IC50 high HSA/IC50 low HSA” value in assay [1] was above 1. The IC50 in assay [2] was below 1000 nM.

On to HAEGTFTSDVSK([AEEA-AEEA-γGlu-13‑carboxytridecanoyl])YLEEQAAK([AEEA-AEEA-γGlu-13‑carboxytridecanoyl])EFIAWLVQGRG [GLP-1 derivative of Example 54: [Lys18,Glu22,Gln34]-GLP-1-(7-37)-peptide], for which the “ratio IC50 high HSA/IC50 low HSA” value in assay [1] was above 1. The molecule also displayed an IC50 in assay [2] below 1000 nM.

On to HAEGTFTSDVSK([AEEA-AEEA-γGlu-13‑carboxytridecanoyl])YLEEEAVRK([AEEA-AEEA-γGlu-13‑carboxytridecanoyl])FIAWLVRGRG [GLP-1 derivative of Example 57: [Lys18,Glu22,Glu23,Val25,Arg26,Lys27,Arg34]-GLP-1-(7-37)-peptide], for which the “ratio IC50 high HSA/IC50 low HSA” value in assay [1] was above 1. In assay [2], this molecule registered an IC50 below 1000 nM.

On to HAEGTFTSDVSK([AEEA-AEEA-γGlu-γGlu-γGlu-13‑carboxytridecanoyl])YLEEQAVREFIAK([AEEA-AEEA-γGlu-γGlu-γGlu-13‑carboxytridecanoyl])LVRGRG [GLP-1 derivative of Example 101: [Lys18,Glu22,Val25,Arg26,Lys31,Arg34]-GLP-1-(7-37)-peptide], for which, in assay [1], the “ratio IC50 high HSA/IC50 low HSA” value is above 1. For the same molecule, in assay [2], the IC50 is below 1000 nM.

Turning to HAEGTFTSDVSK([γGlu-AEEA-AEEA-13‑carboxytridecanoyl])YLEEQAVREFIAK([γGlu-AEEA-AEEA-13‑carboxytridecanoyl])LVRGRG [GLP-1 derivative of Example 55: [Lys18,Glu22,Val25,Arg26,Lys31,Arg34]-GLP-1-(7-37)-peptide], the “ratio IC50 high HSA/IC50 low HSA” value in assay [1] was above 1. The same molecule showed an IC50 in assay [2] below 1000 nM.

On to HAEGTFTSDVSK([AEEA-AEEA-γGlu-Decanoyl(10-(4-HOOC-PhO))])YLEGQAVREFIAK([AEEA-AEEA-γGlu-Decanoyl(10-(4-HOOC-PhO))])LVRGRG [GLP-1 derivative of Example 107: [Lys18,Val25,Arg26,Lys31,Arg34]-GLP-1-(7-37)-peptide], for which the “ratio IC50 high HSA/IC50 low HSA” value in assay [1] is above 1. For the same molecule, the IC50 in assay [2] is below 1000 nM.

Turning to HAEGTFTSDVSK([AEEA-AEEA-γGlu-Decanoyl(10-(4-HOOC-PhO))])YLEGQAAK([AEEA-AEEA-γGlu-Decanoyl(10-(4-HOOC-PhO))])EFIAWLVRGRG [GLP-1 derivative of Example 95: [Lys18,Arg34]-GLP-1-(7-37)-peptide], the “ratio IC50 high HSA/IC50 low HSA” value in assay [1] is above 1. In assay [2], this molecule displayed an IC50 below 1000 nM.

As for HAEGTFTSDVSK([AEEA-AEEA-γGlu-13‑carboxytridecanoyl])YLEEQAAHK([AEEA-AEEA-γGlu-13‑carboxytridecanoyl])FIAWLVRGRG [GLP-1 derivative of Example 60: [Lys18,Glu22,His26,Lys27,Arg34]-GLP-1-(7-37)-peptide], the “ratio IC50 high HSA/IC50 low HSA” value in assay [1] is above 1. Further, the IC50 in assay [2] was below 1000 nM.

HAEGTFTSDVSK([AEEA-AEEA-γGlu-13‑carboxytridecanoyl])YLEEQAAHK([AEEA-AEEA-γGlu-13‑carboxytridecanoyl])FIAHLVRGRG [GLP-1 derivative of Example 62: [Lys18,Glu22,His26,Lys27,His31,Arg34]-GLP-1-(7-37)-peptide]: in assay [1], the “ratio IC50 high HSA/IC50 low HSA” value was above 1. Besides, the IC50 in assay [2] is below 1000 nM.

B1: GLP-1 derivative of Example 97: [Lys,Glu22,Arg34]-GLP-1-(7-37)-peptide (peptide)
peptide: HAEGTFTSDVSK([AEEA-AEEA-γGlu-γGlu-13‑carboxytridecanoyl])YLEEQAAK([AEEA-AEEA-γGlu-γGlu-13‑carboxytridecanoyl])EFIAWLVRGRG
notes: Name prints Lys without its number (Lys18)
On to B1, for which the “ratio IC50 high HSA/IC50 low HSA” value in assay [1] is above 1. The molecule also gave an IC50 in assay [2] below 1000 nM.

In the case of HAEGTFTSDVSK([γGlu-AEEA-AEEA-Decanoyl(10-(4-HOOC-PhO))])YLEGQAAK([γGlu-AEEA-AEEA-Decanoyl(10-(4-HOOC-PhO))])EFIAWLVRGRG [GLP-1 derivative of Example 106: [Lys18,Arg34]-GLP-1-(7-37)-peptide], the “ratio IC50 high HSA/IC50 low HSA” value in assay [1] was above 1. The molecule further displayed an IC50 in assay [2] below 1000 nM.

Turning to HAEGTFTSDVSK([AEEA-AEEA-γGlu-Decanoyl(10-(4-HOOC-PhO))])YLEGQAAHK([AEEA-AEEA-γGlu-Decanoyl(10-(4-HOOC-PhO))])FIAWLVQGRG [GLP-1 derivative of Example 67: [Lys18,His26,Lys27,Gln34]-GLP-1-(7-37)-peptide], the “ratio IC50 high HSA/IC50 low HSA” value in assay [1] is above 1. The molecule also yielded an IC50 in assay [2] below 1000 nM.

Take HAEGTFTSDVSK([AEEA-AEEA-AEEA-AEEA-AEEA-AEEA-γGlu-13‑carboxytridecanoyl])YLEEQAVREFIAK([AEEA-AEEA-AEEA-AEEA-AEEA-AEEA-γGlu-13‑carboxytridecanoyl])LVRGRG [GLP-1 derivative of Example 99: [Lys18,Glu22,Val25,Arg26,Lys31,Arg34]-GLP-1-(7-37)-peptide]: the “ratio IC50 high HSA/IC50 low HSA” value in assay [1] is above 1. Also, the IC50 in assay [2] is below 1000 nM.

In the case of HAEGTFTSDVSK([γGlu-AEEA-AEEA-13‑carboxytridecanoyl])YLEGQAVREFIAK([γGlu-AEEA-AEEA-13‑carboxytridecanoyl])LVRGRG [GLP-1 derivative of Example 104: [Lys18,Val25,Arg26,Lys31,Arg34]-GLP-1-(7-37)-peptide], the “ratio IC50 high HSA/IC50 low HSA” value in assay [1] is above 1. The IC50 in assay [2] was below 1000 nM.

Consider HAEGTFTSDVSK([AEEA-AEEA-γGlu-13‑carboxytridecanoyl])YLEEQAAK([AEEA-AEEA-γGlu-13‑carboxytridecanoyl])EFIAWLVRGRG [GLP-1 derivative of Example 96: [Lys18,Glu22,Arg34]-GLP-1-(7-37)-peptide], for which, in assay [1], the “ratio IC50 high HSA/IC50 low HSA” value is above 1. Moreover, the IC50 in assay [2] is below 1000 nM.

For HAEGTFTSDVSK([AEEA-AEEA-γGlu-8‑(4-carboxyphenoxy)octanoyl])YLEEQAAK([AEEA-AEEA-γGlu-8‑(4-carboxyphenoxy)octanoyl])EFIAWLVQGRG [GLP-1 derivative of Example 89: [Lys18,Glu22,Gln34]-GLP-1-(7-37)-peptide], the “ratio IC50 high HSA/IC50 low HSA” value in assay [1] was above 1. Besides, the IC50 in assay [2] is below 1000 nM.

HAEGTFTSDVSK([AEEA-AEEA-AEEA-AEEA-γGlu-13‑carboxytridecanoyl])YLEEQAVREFIAK([AEEA-AEEA-AEEA-AEEA-γGlu-13‑carboxytridecanoyl])LVRGRG [GLP-1 derivative of Example 98: [Lys18,Glu22,Val25,Arg26,Lys31,Arg34]-GLP-1-(7-37)-peptide]: in assay [1], the “ratio IC50 high HSA/IC50 low HSA” value was above 1. Moreover, the IC50 in assay [2] was below 1000 nM.

As to HAEGTFTSDVSK([γGlu-AEEA-AEEA-13‑carboxytridecanoyl])YLEEQAVREFIAK([γGlu-AEEA-AEEA-13‑carboxytridecanoyl])LVQGRG [GLP-1 derivative of Example 56: [Lys18,Glu22,Val25,Arg26,Lys31,Gln34]-GLP-1-(7-37)-peptide], the “ratio IC50 high HSA/IC50 low HSA” value in assay [1] is above 1. Also, in assay [2], the IC50 is below 1000 nM.

HAEGTFTSDVSK([AEEA-AEEA-γGlu-13‑carboxytridecanoyl])YLEEEAVRK([AEEA-AEEA-γGlu-13‑carboxytridecanoyl])FIAWLVQGRG [GLP-1 derivative of Example 58: [Lys18,Glu22,Glu23,Val25,Arg26,Lys27,Gln34]-GLP-1-(7-37)-peptide]: the “ratio IC50 high HSA/IC50 low HSA” value in assay [1] was above 1. The molecule further registered an IC50 in assay [2] below 1000 nM.

In the case of HAEGTFTSDVSK([AEEA-AEEA-γGlu-Decanoyl(10-(4-HOOC-PhO))])YLEEQAAK([AEEA-AEEA-γGlu-Decanoyl(10-(4-HOOC-PhO))])EFIAWLVRGRG [GLP-1 derivative of Example 94: [Lys18,Glu22,Arg34]-GLP-1-(7-37)-peptide], in assay [1], the “ratio IC50 high HSA/IC50 low HSA” value was above 1. In assay [2], this molecule gave an IC50 below 1000 nM.

In the case of HAEGTFTSDVSK([AEEA-AEEA-γGlu-γGlu-γGlu-13‑carboxytridecanoyl])YLEGQAAREFIAK([AEEA-AEEA-γGlu-γGlu-γGlu-13‑carboxytridecanoyl])LVRGRG [GLP-1 derivative of Example 91: [Lys18,Arg26,Lys31,Arg34]-GLP-1-(7-37)-peptide], the “ratio IC50 high HSA/IC50 low HSA” value in assay [1] is above 1. Moreover, the IC50 in assay [2] was below 1000 nM.

Consider HAEGTFTSDVSK([AEEA-AEEA-γGlu-13‑carboxytridecanoyl])YLEGQAAHEFIAK([AEEA-AEEA-γGlu-13‑carboxytridecanoyl])LVRGRG (position 26 of the entry may not be His) [GLP-1 derivative of Example 72: [Lys18,His26,Lys31,Arg34]-GLP-1-(7-37)-peptide], for which the “ratio IC50 high HSA/IC50 low HSA” value in assay [1] is above 1. The IC50 in assay [2] is below 1000 nM.

For HAEGTFTSDVSK([AEEA-AEEA-γGlu-Decanoyl(10-(4-HOOC-PhO))])YLEEQAVREFIAK([AEEA-AEEA-γGlu-Decanoyl(10-(4-HOOC-PhO))])LVRGRG [GLP-1 derivative of Example 75: [Lys18,Glu22,Val25,Arg26,Lys31,Arg34]-GLP-1-(7-37)-peptide], in assay [1], the “ratio IC50 high HSA/IC50 low HSA” value was above 1. In assay [2], this molecule returned an IC50 below 1000 nM.
